One block for each molecule: values may come before it.
Key:
[1] = target: T1, type I IL-1 receptor on murine EL4 6.1 cells (murine) (UniProt P13504); test: competitive radioligand binding on EL4 6.1 cells, 100x excess of competitor
T1 sequence (looked up): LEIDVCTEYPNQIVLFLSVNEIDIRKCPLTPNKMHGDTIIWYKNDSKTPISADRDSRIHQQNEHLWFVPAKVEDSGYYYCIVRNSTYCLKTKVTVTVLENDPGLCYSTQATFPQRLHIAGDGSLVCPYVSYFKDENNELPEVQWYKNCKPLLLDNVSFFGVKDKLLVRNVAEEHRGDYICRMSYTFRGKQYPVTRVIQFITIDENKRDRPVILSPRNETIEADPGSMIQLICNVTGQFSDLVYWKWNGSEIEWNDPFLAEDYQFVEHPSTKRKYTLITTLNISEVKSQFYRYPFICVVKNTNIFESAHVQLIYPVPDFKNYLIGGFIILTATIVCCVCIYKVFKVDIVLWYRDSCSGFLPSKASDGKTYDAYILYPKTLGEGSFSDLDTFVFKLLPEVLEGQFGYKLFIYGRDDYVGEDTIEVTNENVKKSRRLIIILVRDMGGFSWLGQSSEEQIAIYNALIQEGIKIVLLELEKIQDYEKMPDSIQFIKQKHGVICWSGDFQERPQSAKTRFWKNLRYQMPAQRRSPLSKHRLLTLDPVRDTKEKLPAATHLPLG

[2] = target: T2, type I IL-1 receptor on murine EL4 6.1 cells (murine, UniProt P13504 20-576); test: competition with [125I] IL-1 beta for type I IL-1R on EL4 6.1 cells
T2 construct: whole, on cells; Endogenous receptor on the murine T cell line EL4 6.1; also called type I IL-1Rs; IL-1 receptors on murine EL4 6.1 cells
T2 sequence (looked up): T1 sequence (looked up)
Protocol: IL-1 beta for binding to type I IL-1 receptors on murine cells. EL46.1 cells were incubated at 4° C. in presence of the sodium azide for 2 hr with and without each of the IL-1ra peptides or with soluble human recombinant interleukin Ira (shrIL-1ra) as a control. Cells were then incubated with [¹²⁵I]hrIL-1, transferred to microfuge tubes containing phthalolate oil, centrifuged and free and bound radioactivity determined. Non-specific binding was determined in the presence of 100× excess concentration of cold hrIL-1 beta.

- displacement of [125I] IL-1 beta [1]: > 90%
Molecule: soluble human recombinant interleukin 1ra (shrIL-1ra) (from UniProt P18510 26-177) (ligand)

- binding result [2]: no binding
B1: IL-1ra peptide 1-35 (SEQ ID NO: 13) (peptide)
peptide: RPSGRKSSKMQAFRIWDVNQKTFYLRNNQLVAGYL
notes: Synthetic peptide representing part of the processed/mature form of human sIL-1ra; also called IL-1ra 1-35; amino terminal IL-1ra peptide

Source: US20070027082A1 (UNIVERSITY OF TENNESSEE RESEARCH FOUNDATION, published 2007)
